Measurements: US20060045883A1 (published 2006)
One block for each binder: values may come before it.

Key:
[1] = target: T1, HLA-A2.1 heavy chain with I125-labeled beta2-microglobulin (heterotrimer dissociation assay) (human, I^125-labeled); assay: dissociation of I125-labeled beta2-microglobulin from the heavy chain/peptide/beta2-microglobulin complex, HPLC gel filtration
T1 construct: T1/2 is the half-time of dissociation of labeled beta2-microglobulin from the heavy chain/peptide/beta2-microglobulin complex; also called HLA-A2.1 heavy chain / beta2-microglobulin complex

[2] = target: T1, HLA-A2.1 heavy chain with I125-labeled …; assay: I125-beta2-microglobulin dissociation assay
[3] = target: T2, HLA-A2.1 (HLA-A*0201) on the surface of T2 cells (human); assay: T2 stabilisation assay, indirect flow cytometry with BB7.2 (FIG. 34)
T2 construct: also called HLA-A2 on T2

[4] = target: T2, HLA-A2.1 (HLA-A*0201) on the surface of …; assay: T2 stabilisation assay, flow cytometry

B5: PR7I peptide of proteinase 3 (amino acid 115-124, Ile 119 variant) (peptide)
peptide: KLNDILLIQL
notes: also called PR71
binding result [4]: binds

B6: PR7V peptide of proteinase 3 (amino acid 115-124, Val 119 variant) (peptide)
peptide: KLNDVLLIQL
binding result [4]: binds

B7: MY2 peptide of myeloperoxidase (peptide)
peptide: KLLLALAGL
binding result [2]: binds
binding result [3]: binds

B8: MY4 peptide of myeloperoxidase (peptide)
peptide: RLFEQVMRI
binding result [2]: binds
binding result [3]: binds

The remaining lines, values ahead:

T1/2 [1]: 24.3 h
B1: PR1 (aa 169-177) peptide of proteinase 3 (peptide)
peptide: VLQELNVTV
notes: Synthetic peptide, minimum 95% purity

binding result [2]: binds
binding result [3]: binds
B2: MY3 peptide of myeloperoxidase (peptide)
peptide: LLSYFKQPV

binding result [2]: binds
binding result [3]: binds
B3: MY1 peptide of myeloperoxidase (peptide)
peptide: SLWRRPFNV

T1/2 [1]: 2.33 h
B4: PR2 peptide of proteinase 3 (peptide)
peptide: RLFPDFFTRV

binding result [2]: binds
binding result [3]: binds
B9: MY5 peptide of myeloperoxidase (peptide)
peptide: LIQPFMFRL
